Assay [1] addresses DcaP lacking 40 residues at the N-terminus of the mature protein (DcaP_(DN40)) (Acinetobacter baumannii (strain AB307-0294)). The assay is described as follows: SEC.
Assay [2] addresses barrel-only DcaP lacking the first 59 residues (DcaP_(Trunc)) (Acinetobacter baumannii (strain AB307-0294)). The assay is described as follows: SEC. Background: SEC sorts molecules by how far they enter the pores of the column.
Assay [3] addresses seleno-methionine substituted DcaP_(DN40) with L280M and L282M (Acinetobacter baumannii (strain AB307-0294)). The assay is described as follows: crystal structure.
Assay [4] concerns the target full-length DcaP from Acinetobacter baumannii AB307-0294 (DcaPfl) (Acinetobacter baumannii (strain AB307-0294)). The assay is described as follows: SEC.
Assay [5] has the same target. The assay is described as follows: single channel electrophysiology in planar lipid bilayers.

As a reminder, the stoichiometry N is a count of units in the complex or per binding partner. In assay [1], “DcaP lacking 40 residues at the N-terminus of the mature protein (DcaP_(DN40)) (domain or fragment)” displayed a stoichiometry N of 3.

The substance “barrel-only DcaP lacking the first 59 residues (DcaP_(Trunc)) (domain or fragment)” gave a stoichiometry N in assay [2] of 3.

“seleno-methionine substituted DcaP_(DN40) with L280M and L282M (domain or fragment)” showed a stoichiometry N in assay [3] of 3.

As for “full-length DcaP from Acinetobacter baumannii AB307-0294 (DcaPfl) (natural protein)”, the stoichiometry N in assay [4] and in assay [5] was 3 in each case.

The record behind these values is paper doi:10.1101/306035.
